Assay results as given in patent US20050089938A1, “Use of peptide fragments of the calcium channel a-1 subunit, optionally comprising mutations, for screening molecules of therapeutic interest” (priority 2001, published 2005).

Columns and labels:
Cav2.1 channel = molecular target: T1, Cav2.1 channel (Oryctolagus cuniculus, UniProt P27884); assay: Inactivation kinetics of the Cav2.1 channel expressed in Xenopus oocytes, two-electrode voltage-clamp Ba2+ currents; type: cell-based, rabbit
T1 construct: expressed in transfected cells; host or cells: Xenopus laevis oocytes (cRNA injection)
Protocol: Xenopus oocytes are removed at Stages V and VI from ovaries of Xenopus laevis frogs from South Africa and maintained in standard saline solution (Barth's medium). The cells are treated with collagenase type IA (2 mg/ml) for two hours and the follicular membranes are eliminated manually. The oocytes are maintained in DNOM medium (defined nutrient oocyte medium) for 2 days before injection of cRNA coding for the Cav2.1 channel. The injection of this cRNA coding for the wild-type or mutated channel is carried out at a concentration of 0.3 μg/μl. In the case of coinjection of other cRNAs (for example: CD8-III-IV, III-IV, etc.), these cRNAs are injected at a concentration of 0.1 μg/μl. The injections of III-IV peptide are carried out at a final intracellular concentration of 10 μM. […] Following the cRNA injections, the cells are kept at 16° C. in DNOM medium for a minimum of 4-5 days before continuing with the electrophysiological recordings.
We applied the two-electrode voltage-clamp technique for the recordings of Ba^2+ currents (the Ba^2+ is more permeable than the Ca^2+ through the high-threshold calcium channels and facilitates our analyses). The recordings are carried out with a GeneClamp amplifier from Axon Instruments (Foster City, Calif.). […] The data are analyzed with the pCLAMP software suite version 6.03 (Axon Instruments). […]

III-IV loop of Cav2.1 = molecular target: T2, III-IV loop of Cav2.1 (Oryctolagus cuniculus, UniProt P27884); assay: Binding of 35S-methionine labelled in vitro translated I-II loop to GST-III-IV fusion protein; parameters: species or system rabbit; settings: 35S-methionine labelled I-II loop, absence of β sub-unit
T2 construct: This III-IV loop has been expressed and purified as a GST (Glutathione-S-Tranferase) fusion protein; made in house
From the text: FIG. 2: Binding of the I-II loop of Cav2.1 to different intracellular loops. […] This III-IV loop has been expressed and purified as a GST (Glutathione-S-Tranferase) fusion protein. The I-II protein of the channel has been translated in vitro and labelled by a radioactive amino acid (^35S-methionine) in order to monitor its binding to the GST-III-IV fusion protein.
These two amino acids are therefore indispensable to the binding of the I-II loop to the III-IV loop in the absence of the β sub-unit of the calcium channel.

[1] = system: high threshold calcium channels; assay: High-threshold calcium current after expression of the I-II loop in rat cerebellum granular cells; type: cell-based; settings: rat cerebellum granular cells transfected with I-II loop coupled to CD8 transmembrane segment and GFP
From the text: (§1) The expression of the I-II loop of the Cav2.1 channel is induced following a cell transfection method (thanks to a transfection agent: lipofectamine, fugene etc.). In order to have the ability to bind the endogenous β sub-units to these cells, we have noted that the ability of this I-II sequence to reduce the expression at the plasma membrane of the endogenous high-threshold calcium channels is facilitated by its coupling to a transmembrane segment. The Inventors have used for their experiments the transmembrane segment of the α chain of the human CD8 receptor, coupled to the amino-terminal part of the I-II loop. In order to facilitate the detection of the transfected cells, the carboxy-terminal part of the I-II loop was coupled to GFP protein (Green Fluorescent Protein) which has the property of green fluorescence (easily detectable in fluorescence microscopy). FIG. 1A illustrates the construction used for these experiments. FIG. 1B illustrates the amino-acid sequence of the transmembrane sequence of the α chain of the CD8 receptor.

[2] = system: high threshold calcium channels; assay: High-threshold calcium current after expression of the I-II loop in bovine chromaffin cells; type: cell-based; settings: bovine chromaffin cells transfected with I-II loop coupled to CD8 transmembrane segment and GFP
From the text: as §1

T1 sequence (P27884 whole entry): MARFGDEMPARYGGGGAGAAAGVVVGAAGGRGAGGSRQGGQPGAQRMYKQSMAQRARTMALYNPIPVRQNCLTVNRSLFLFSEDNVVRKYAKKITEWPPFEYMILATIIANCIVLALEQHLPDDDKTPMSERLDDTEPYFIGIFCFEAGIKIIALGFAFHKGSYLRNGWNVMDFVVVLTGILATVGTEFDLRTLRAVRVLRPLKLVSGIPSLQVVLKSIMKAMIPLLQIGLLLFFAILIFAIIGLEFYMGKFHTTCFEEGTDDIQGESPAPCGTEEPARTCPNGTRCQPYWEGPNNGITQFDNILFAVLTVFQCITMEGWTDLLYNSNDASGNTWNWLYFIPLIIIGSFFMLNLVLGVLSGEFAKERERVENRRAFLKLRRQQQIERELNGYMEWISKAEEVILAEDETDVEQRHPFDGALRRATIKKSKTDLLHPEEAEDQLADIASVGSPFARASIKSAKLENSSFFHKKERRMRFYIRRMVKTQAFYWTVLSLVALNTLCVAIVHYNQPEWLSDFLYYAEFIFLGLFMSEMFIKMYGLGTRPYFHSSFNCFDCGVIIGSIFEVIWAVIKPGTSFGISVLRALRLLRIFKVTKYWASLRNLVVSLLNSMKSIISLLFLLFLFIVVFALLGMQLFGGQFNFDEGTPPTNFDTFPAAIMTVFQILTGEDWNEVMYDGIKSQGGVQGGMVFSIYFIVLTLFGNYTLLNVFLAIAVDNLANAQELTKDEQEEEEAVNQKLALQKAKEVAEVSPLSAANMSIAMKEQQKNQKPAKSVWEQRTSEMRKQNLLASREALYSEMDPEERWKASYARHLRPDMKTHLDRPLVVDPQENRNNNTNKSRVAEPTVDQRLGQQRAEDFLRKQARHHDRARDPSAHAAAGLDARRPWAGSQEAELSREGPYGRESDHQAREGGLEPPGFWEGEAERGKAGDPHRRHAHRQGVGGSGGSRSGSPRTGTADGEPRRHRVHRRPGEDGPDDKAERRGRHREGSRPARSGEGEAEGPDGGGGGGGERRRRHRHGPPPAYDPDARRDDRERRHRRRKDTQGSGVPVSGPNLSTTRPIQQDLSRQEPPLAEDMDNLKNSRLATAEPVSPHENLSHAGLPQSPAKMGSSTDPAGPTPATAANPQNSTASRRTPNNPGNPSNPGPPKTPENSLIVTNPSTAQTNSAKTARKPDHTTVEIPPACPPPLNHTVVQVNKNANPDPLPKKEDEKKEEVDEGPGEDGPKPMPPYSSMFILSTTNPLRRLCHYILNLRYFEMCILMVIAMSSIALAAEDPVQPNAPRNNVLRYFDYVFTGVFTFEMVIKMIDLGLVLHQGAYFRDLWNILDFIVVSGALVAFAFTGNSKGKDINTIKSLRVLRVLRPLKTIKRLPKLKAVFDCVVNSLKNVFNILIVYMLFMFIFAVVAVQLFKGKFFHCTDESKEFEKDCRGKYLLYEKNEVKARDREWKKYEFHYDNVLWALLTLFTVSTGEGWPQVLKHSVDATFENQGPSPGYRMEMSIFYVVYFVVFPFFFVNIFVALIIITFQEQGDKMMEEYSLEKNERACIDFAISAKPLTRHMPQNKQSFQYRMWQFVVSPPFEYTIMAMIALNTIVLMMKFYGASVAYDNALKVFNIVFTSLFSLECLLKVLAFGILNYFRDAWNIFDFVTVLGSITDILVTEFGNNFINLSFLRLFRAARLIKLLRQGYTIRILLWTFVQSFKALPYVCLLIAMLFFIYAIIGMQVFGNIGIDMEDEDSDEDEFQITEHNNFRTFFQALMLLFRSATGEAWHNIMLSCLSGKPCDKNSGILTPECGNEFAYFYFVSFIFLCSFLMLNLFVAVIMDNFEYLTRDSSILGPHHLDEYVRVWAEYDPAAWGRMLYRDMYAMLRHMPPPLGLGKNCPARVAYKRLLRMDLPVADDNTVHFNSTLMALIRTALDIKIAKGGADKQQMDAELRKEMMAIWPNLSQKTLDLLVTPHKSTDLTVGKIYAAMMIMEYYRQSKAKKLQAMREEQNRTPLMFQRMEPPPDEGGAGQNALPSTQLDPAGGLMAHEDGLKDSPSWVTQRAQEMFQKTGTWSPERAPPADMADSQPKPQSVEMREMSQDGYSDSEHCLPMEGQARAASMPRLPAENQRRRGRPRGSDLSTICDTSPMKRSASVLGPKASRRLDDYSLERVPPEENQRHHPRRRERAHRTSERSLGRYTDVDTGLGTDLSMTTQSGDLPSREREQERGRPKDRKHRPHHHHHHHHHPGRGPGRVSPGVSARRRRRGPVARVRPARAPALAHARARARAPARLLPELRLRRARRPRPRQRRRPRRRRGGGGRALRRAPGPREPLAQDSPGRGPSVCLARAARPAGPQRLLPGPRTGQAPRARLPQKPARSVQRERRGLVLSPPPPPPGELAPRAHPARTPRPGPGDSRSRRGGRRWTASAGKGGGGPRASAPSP
T2 sequence (P27884 1521-1575): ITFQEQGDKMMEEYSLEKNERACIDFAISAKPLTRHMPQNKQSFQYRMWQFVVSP

## III-IV loop: III-IV loop of Cav2.1 expressed coupled in amino-terminal position with the α chain of the human CD8 receptor
Cav2.1 channel; III-IV loop associated with the plasma membrane via amino-terminal coupling to α chain of human CD8 receptor, cRNA coinjection
  effect on inactivation kinetics of the Cav2.1 channel: accelerates the inactivation kinetics

## peptide representing the 40 carboxy-terminal amino acids of the III-IV loop: peptide representing the 40 carboxy-terminal amino acids of the III-IV loop of Cav2.1 (LEKNERACIDFAISAKPLTRHMPQNKQSFQYRMWQFVVSP)
Cav2.1 channel; peptide free in the cytoplasm, injected, final intracellular concentration 10 μM
  effect on inactivation kinetics of the Cav2.1 channel: acceleration is similar

B1: I-II loop of the Cav2.1 sub-unit: I-II loop of the Cav2.1 calcium channel sub-unit; in cells coupled to CD8 transmembrane segment and GFP (protein, listed as Oryctolagus cuniculus)
chain: SGEFAKERERVENRRAFLKLRRQQQIERELNGYMEWISKAEEVILAEDETDVEQRHPFDGALRRATIKKSKTDLLHPEEAEDQLADIASVGSPFARASIKSAKLENSSFFHKKERRMRFYIRRMVKTQ
III-IV loop of Cav2.1
  binding to the GST-III-IV fusion protein: binding of I-II is evident
[1]
  reduction of the high-threshold calcium current: more than 50%
[2]
  reduction of the high-threshold calcium current: more than 50%
